# Experiment: yeast display, Sf9 membrane polyspecificity reagent, FACS + sequencing; frameworks hold sequencing errors
# Summary of the method: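 Nanobodies from a synthetic yeast display library (Saccharomyces cerevisiae BJ5465), induced 36–48 hours with galactose, were stained 1 hour at 4 °C with 10% biotinylated, detergent-solubilized Sf9 membrane reagent, enriched on streptavidin microbeads, then FACS-sorted. Anti-HA (expression) and streptavidin (reagent binding) fluorescence set low and high (top ~1%) gates. Polyreactivity labels come from the gate of origin. Genes were colony-PCR amplified, MiSeq 2 × 250 sequenced and filtered by CDR length.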
row,Sequence,polyreactivity (PSR sort gate)
1,QVQLVETRGGLLQAGGSLRLSCDASGRTFAYYAMGRYRQAPGKESELVAAITYSDGSTYYADSVKGRFTISRDNAKNTFYLQMNSLKPEDPSVYYCAKGLSREEPENDYDYWGQGTQVTVSS,low polyreactivity
2,QVQLVETVGGLVQAGGSLRLSCAASGIIFKRYPLGGYRQAPGKERELVAAITNRGGTYYADSVKGRFTISRDNEKNSVYLQMYSLKPEDTAVYYFAARYYWIDFKFGGPRDYWGQGTQVTVSS,high polyreactivity
3,QVQLVEYGGGLVQAGGSLRLSCAASGIIFKVYAMGWYRQAPGKEMELVAAISWSGGTTYYADSVKWRFTISRDNAKNTVYLQMNSLKPEDTAVYYCNAVVRVRFRKNDYWGQGTQVTVSS,high polyreactivity
4,QVQLVGSGGGLVQAGGSLRLSCAASGSTFGYYAMGWYRQAPGKERELVAAITKSGGSTFYADSVKGRFTISRDNAKNTVYLQMNSLKPEDTAVYYCAARYKGQYYRQGRHDFWGQGTQVTVSS,high polyreactivity
5,QVQLVQAGGGLVQAGGILRLSCAASGRIFRLYTMGWYRQAPGKERELVAAINSSGGNTYYADSVKGRFTISRDNAKNNVNLQMNSLKPEDTAVYYCAAGWSYPVRNIYYDWGQGTQVTVSS,high polyreactivity
6,QVQLVQSAGGLVQAGGSLRLSCAASGSILSINGMGSYRQAPGKERELVATIDGSDGSTFYADSVKGRLTISRDNAKNTVYFQMNSLKPEDTAVYYCAAENLWQTKEYDYWGLGTQVTVSS,low polyreactivity
7,QVQLVQSCGCLVQAGGSLRLSCAASGRIFYGNDMGWNRQAPGKERDLVAAISSGTSTNYADSVKGRFTISRDNAMNTVYLQMNSLKPEVTAVYYWAAGSYSRYLYSLYFDFDYWGQGSQVTVSS,low polyreactivity
8,QVQLVQSGAGLVQARGSLRLSCAASGSTFRRNVMGWYRQAPGTERELVAAISWSGTSTNYADSVKWRFTISRDNAKNTVYLQMNSLKPEDTAVYYCATQSLYYRWGLDYWGQGTQVTVSS,high polyreactivity
9,QVQLVQSGGGLVHAGGSLRLSCAASGGTFQRYVMGWYRQAPGKERELVAAISRSGSTYADSVKGRFTISRDNAKNTVYLEMNSLKPEDTAVYYCNTVYPGRDYCKFGYWGQGTQVTVSS,high polyreactivity
10,QVQLVQSGGGLVQAGASLRLSCAASGSTFWKYAMGWYRQAPGQERELVASIRSGGSTYYADSVKGRFTISRDNAKNTVYLQMNSLIPEDTAVYYCAAVTHGRYDWVQGTQVTVSS,high polyreactivity
11,QVQLVQSGGGLVQAGGILRLSCAASGRTFSTNAMGRYIQAPGKERQLVAAITYGSSSTYYADSVKGRFTISRDNAKNTVYFKMNCLKPEDTAVYDCAAGGFFTHRRTYGYWGQGTQVTVSS,high polyreactivity
12,QVQLVQSGGGLVQAGGSLRLSCAASGFIFDTYTMGWYRQAPGKERQLVAAISRSGASTYYADSVKGRFTISRDNAKNTVYLQMNSLKPEDTAVYYCATVYYPSYRGGYDYWGQGTQVTVSS,high polyreactivity
13,QVQLVQSGGGLVQAGGSLRLSCAASGITFEYNTMGWYRQAPGKERELVAAITQGGGTTNYADSVKGRFTISRDNAKNTVYLQMNSLKPEDTAVYYCAAFVGYLLLYYPTYYYWGQGTEVTVSS,low polyreactivity
14,QVQLVQSGGGLVQAGGSLRLSCAASGLIFRYYTMGWYRQAPGKERELVAAISSGGSTRYADSVKGRFTISRDNAKNTVYLQMNSLKPEDTAVYYCAAKLYYYVQGRYNYWGQGTQVTVSS,high polyreactivity
15,QVQLVQSGGGLVQAGGSLRLSCAASGLIFTTNPMGWYRQAPGKERQFVAAISPSGGSTYYADSVKGRFTISRDNAKNTVYLQMNCLKPEDTAVYSCGARYSPVWHKYYYWGQGTQVTVSS,high polyreactivity
16,QVQLVQSGGGLVQAGGSLRLSCAASGRIFGLNTMGWYRQAPGKERELVAAITSSAGSTYYADSVKGRFPISRDNAKNTVSLQMNSLKPEDTAVYYCAARVSYLGSFTSQRYYYWGQGTQVTVSS,high polyreactivity
17,QVQLVQSGGGLVQAGGSLRLSCAASGRTFYYYPMGWYRPAPGKERELVAAIRWRGGRTYADSVKGRFTISRDNAKNTVYLQMNSLKPEDTAVYYCAVESFYRHASLYDYWGQGTQVTVSS,high polyreactivity
18,QVQLVQSGGGLVQAGGSLRLSCAASGSIFGYYAKGWNRQAPGKERQLVAAIDSRGGSTYYADSVKGRFTISRDNEKNTVYLQMNSLKTEDTAVYYCAARLRYPRRGQGDNYRGQGTQVTVSS,low polyreactivity
19,QVQLVQSGGGLVQAGGSLRLSCAASGSTFLSKAMGWYRQAPWKERQLVAAITTSGTSTFYADSVKGRFTISRDNAKNTVYLQMNSLKPADTAVYCAKDYLPYLHFVAPSTGDYDYWGQGTQVTVSS,low polyreactivity
20,QVQLVQSGGGLVQAGGSLRLSCAASGSTFRIYAMGWYRQAPGKEREFVAAISDRGGRTYYADSVKGRFTISRDNAKNTVYLQMNSLKPEDTAVYYCAAVKLLSSAPGDDCQMNYWGQGTQVTVSS,low polyreactivity
21,QVQLVQSGGGLVQAGGSLRLSCAASGSTFYQYAMGWYRQSPGKERELVAAISRSGSTNYADSVKGRFTHSRDNAQNTVYLQMNSMKPEDSAVYYCAARLGTRQYKMDYWGQGTQVTVSS,high polyreactivity
22,QVQLVQSGGGLVQAGGSLRLSCAASGTTFRIYAMGWYRQAPGKEREFVAAISDRGGRTYYADSVKGRFTISRDNAKNTVYLQMNSLKPEDTAVYYCAAVKLLSSAPGDDGKMNYWGQGTQVTVSS,low polyreactivity

row,Sequence,polyreactivity (PSR sort gate)
1,QVQLVQSGGGLVQAGGSLRLSYAASGRIFSPNAMGWYRQAPGKERELVAAISYRGANTYYADSVKGRFTISRDNAKNTVDLQMHSLKPEDTAVYYCATRSTHYWGQGTQVTVSS,high polyreactivity
2,QVQLVQSGGGLVQAGGSLRVSSAASGNIFAYYAKGWYSQAPGKERELVAAITDSGGNTFYADSVKGRFTISRDQAKNTVYLQMNSLKPEDTAVYYCAADTFYSYYDMDYWGQGTQVTVSS,low polyreactivity
3,QVQLVQSGGGLVQAGVSLRLSCAASGLIIGVYAMGWYRQAPGKERELVAAITDGGSTYYADSVKGRFTISRDNAKNTVYLQMHSLKPEDTAVYYCNAEFRSSDYDYWGQGTQVTVSS,low polyreactivity
4,QVQLVQSRRGLVQAGCSLRLSCAASGRTFVIYAMGWYRQAPGKERELVAAISKGGGSTYYADSVKGRFTISRDNAKNTVYLQMNSLKPEDTAVYYCAVEASRAGAWYEYWGQGTQVTVSS,high polyreactivity
5,QVQLVQSVGGLVQAGGSLRLSCAASGSIFIWNAMGWYRQAPGKVRELVAAISFTGTSTYYADSVTGRFTISRDNAKNTVYLEMNSLKPEDNAVYYCNNDYRGSQYDYWGQGTQVTVSS,low polyreactivity
6,QVQLVQTGGGVVQAGGSLRLSCAASGRIFNSYPMGWYRQAPGKERELVASINRYGGSTYYADSVKGRFTISRDNAKNTVYLQMYSLNPEDTSVYYCAARGYTSFNTGYGYWGQGTQVSVSS,high polyreactivity
7,QVQLVSSGGGLVLAGGSLRLSCAASGRTIQDNAMGWYTQAPGKERELVAAISWRGGSTNYADSVKGRFTISRDNAKNTVYLQMNSLKPEDTAVYYCNRDPRKYGKLDYWGQGTQVTVSS,low polyreactivity
8,QVQLVVSGGGLVQAGGSLRLSCAASGFTFSSNAMGWYRQAPGKECELVAAISTSGASTYYADSVKGRFTISRDNAKNTVYLQMNSLKPADSAVYYCNVPQWHRWYGYPGEDYDYWGQGTQVTVSS,high polyreactivity
9,QVQLVVSGGGLVQAGGSLRLSCAASGIIFSPYALGWYIQAPGKERELVAAISYSGGSTYYADSVKGRFTISRDNAKNTVYLQMNSLKPEDTAVYYCAVVYSYYLAVMGYWDYDYWGQGTQVTVSS,low polyreactivity
10,QVQLVVSGGGLVQAGGSLRLSCAASGITFGRNTMGWYRQAPGKERELVAAIDSGGNTYADSVKGRFTISRDNAKNTVYLQMNSLKPEDTAVYYCAVDGGEFSSYGYWGQGTQVTVSS,low polyreactivity
11,QVQLVVSGGGLVQAGGSLRLSCAASGRIFWFNAMGWYRQAPGKEREFVATITYRGGSTYYADSVKGRFTISRDNAKNTVYLQMNSLLPEDTAVYYCAASVSYRRYHRFGYWGQGTQVTVSS,high polyreactivity
12,QVQLVVSGGGLVQAGGSLRLSCAASGRIFYTYAMGWYIQAPGKERELVATITDGGSTYYADSVKVRFTISRDNAMNNVYLQMNILKPEDTAVYYCAADAYQWYDWGQGTHVTVSS,low polyreactivity
13,QVQLVVSGGGLVQAGGSLRLSCAASGSIFRFYTMGWYRQAPGKERELVAAISASGGNTYYADSVKGRFTISRDNAKNTVYLQMNSLKPEDTAVYYCARVKFTKYDYWGQGTQVTVSS,high polyreactivity
14,QVQLVVSGGGLVQAGGSLRLSCAASGSIFTRYAMGWYRQAPGKERELVAAISSGGSTYYADSVKGRFTISRDNAKNTVYLQMNSLKPEDTAVYYCAKDSGSYRVGIYEPFPYGYWGQGTQVTVSS,low polyreactivity
15,QVQLVYSGGGLVKAGGTLRLSCAASGSTFTPNAMGWYRQAPGKERELVAAINWSDSSTYYADSVKGRFTISRDNAKNTVYLQMNSLIPEDTAVYYCAAAAQYGQLQVPVYYWGEGTQVTVSS,low polyreactivity
16,QVQLVYSGGGLVQAGGSLRLSCAASGRTSWIKAMGWYRTAPGKERQLVAAIRYSGRTYYADSVKGRFTISRDNAKNTVYLQMNSLKPEDYGVYYCAAVVGGYETGRYYYWGQGTQVTVSS,high polyreactivity
17,QVQMQESSGGLVHAGGSLRKSCAASGTIYHFHIMGWYRQAPGKEREFVAAIRYGTSTYYADSVKGLFTISRDNEKNTVYVKMNSQKPEDTAVYYCAVYDYLEVYCWYWGQGTQVTVSS,low polyreactivity
18,QVQNVDSGGVLVQAGGSLRLSCEASGRIRYYAMGWYRQAPGKERELVAAISSRGGSTYYADSVKGRFTISRDNAKNTVYLLLNSLKPEDTAVYYCAKGGYWGHGTQVTVSS,high polyreactivity
19,QVQPVESGGGLVQAGGSLRLSCAASGSTLGHNAMGWYRQAPGKERELVAAITSSGGRTYYADSVKGRFTISRDNAKNTVYLQMNSLKPEDTAVYYCAADDTDYPEYDYWGQGTQVTVSS,high polyreactivity
20,QVQPVESVGGLVQAGGSLRLSGAASGSIFAVYAMRWYRQPPGNERELVARITRGGGSTYYADSVKGRVTISRDNAKNTVYLQMNSLKPEDTAVYYCAAARRSQYRTWMNYWGQGTQVTVSS,high polyreactivity
21,QVQQPESGGGLVQAGGSLRLSCAASGTIFQLTVMGRSRQAPGKERELVASIDYGGNPNYADSVKGRFTISRDNAKNTVYLQMNCLKPEDTAVYYCAASSDSWTTHPYWGQGTQVTVSS,low polyreactivity

# From the nanobody polyreactivity screen of Harvey et al. (2022)
